# T1: FcγRIIa R (human, UniProt P12318 34-217)
# T1 construct: extracellular domain; also called FcgRIIa R type; 2aR
# T1 sequence (looked up): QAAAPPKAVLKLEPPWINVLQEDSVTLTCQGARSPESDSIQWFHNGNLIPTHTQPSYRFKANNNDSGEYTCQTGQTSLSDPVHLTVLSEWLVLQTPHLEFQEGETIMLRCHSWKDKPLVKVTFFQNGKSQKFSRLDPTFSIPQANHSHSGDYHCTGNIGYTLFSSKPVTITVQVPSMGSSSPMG
# B1: GpH7-B3 variant N325_01G/GpL16-k0 (antibody, human IgG1, kappa)
# heavy: not shown
# light: DIVMTQSPLSLPVTPGEPASISCQASESLVHSNRNTYLHWYLQKPGQSPQLLIYKVSNRFSGVPDRFSGSGSGTDFTLKISRVEAEDVGVYYCSQNTHVPPTFGQGTKVEIERTVAAPSVFIFPPSDEQLKSGTASVVCLLNNFYPREAKVQWKVDNALQSGNSQESVTEQDSKDSTYSLSSTLTLSKADYEKHKVYACEVTHQGLSSPVTKSFNRGEC
# notes: also called Ho Ab N325_01G
# B2: GpH7-B3 variant K326_07I/GpL16-k0 (antibody, human IgG1, kappa)
# heavy: not shown
# light: B1 light
# notes: also called Ho Ab K326_07I
# B3: GpH7-B3 variant I332_14T/GpL16-k0 (antibody, human IgG1, kappa)
# heavy: not shown
# light: B1 light
# notes: also called Ho Ab I332_14T
# B4: GpH7-B3 variant A330_15Y/GpL16-k0 (antibody, human IgG1, kappa)
# heavy: not shown
# light: B1 light
# notes: also called Ho Ab A330_15Y
# B5: GpH7-B3 variant K334_02A/GpL16-k0 (antibody, human IgG1, kappa)
# heavy: not shown
# light: B1 light
# notes: also called Ho Ab K334_02A
# B6: GpH7-B3 variant K326_20W/GpL16-k0 (antibody, human IgG1, kappa)
# heavy: not shown
# light: B1 light
# notes: also called Ho Ab K326_20W
# B7: GpH7-B3 variant G237_10E/GpL16-k0 (antibody, human IgG1, kappa)
# heavy: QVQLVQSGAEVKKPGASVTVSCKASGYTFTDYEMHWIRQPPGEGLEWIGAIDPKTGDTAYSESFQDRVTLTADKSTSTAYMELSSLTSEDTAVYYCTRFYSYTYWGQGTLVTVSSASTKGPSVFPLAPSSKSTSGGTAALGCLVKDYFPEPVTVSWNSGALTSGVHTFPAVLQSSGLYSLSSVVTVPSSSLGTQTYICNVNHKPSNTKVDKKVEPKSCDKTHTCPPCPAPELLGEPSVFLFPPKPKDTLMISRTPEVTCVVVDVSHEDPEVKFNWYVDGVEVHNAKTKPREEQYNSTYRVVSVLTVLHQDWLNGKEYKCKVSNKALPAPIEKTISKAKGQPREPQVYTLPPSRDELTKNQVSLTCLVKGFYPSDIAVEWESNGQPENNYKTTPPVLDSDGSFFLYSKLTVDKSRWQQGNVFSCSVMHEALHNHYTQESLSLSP
# light: B1 light
# notes: also called Ho Ab G237_10E
# B8: GpH7-B3 variant E333_09D/GpL16-k0 (antibody, human IgG1, kappa)
# heavy: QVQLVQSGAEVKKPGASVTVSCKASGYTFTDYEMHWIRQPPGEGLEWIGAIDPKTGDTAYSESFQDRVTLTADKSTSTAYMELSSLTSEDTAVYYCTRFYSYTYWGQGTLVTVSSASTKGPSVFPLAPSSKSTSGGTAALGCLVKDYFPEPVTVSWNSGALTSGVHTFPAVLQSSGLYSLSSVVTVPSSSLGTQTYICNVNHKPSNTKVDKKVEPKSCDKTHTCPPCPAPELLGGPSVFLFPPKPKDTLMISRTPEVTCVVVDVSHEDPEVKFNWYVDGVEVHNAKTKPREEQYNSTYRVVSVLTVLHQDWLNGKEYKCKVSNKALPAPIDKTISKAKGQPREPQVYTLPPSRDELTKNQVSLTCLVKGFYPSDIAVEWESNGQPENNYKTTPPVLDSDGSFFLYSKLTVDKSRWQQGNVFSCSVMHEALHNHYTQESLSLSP
# light: B1 light
# notes: also called Ho Ab E333_09D
# B9: GpH7-B3 variant K326_12R/GpL16-k0 (antibody, human IgG1, kappa)
# heavy: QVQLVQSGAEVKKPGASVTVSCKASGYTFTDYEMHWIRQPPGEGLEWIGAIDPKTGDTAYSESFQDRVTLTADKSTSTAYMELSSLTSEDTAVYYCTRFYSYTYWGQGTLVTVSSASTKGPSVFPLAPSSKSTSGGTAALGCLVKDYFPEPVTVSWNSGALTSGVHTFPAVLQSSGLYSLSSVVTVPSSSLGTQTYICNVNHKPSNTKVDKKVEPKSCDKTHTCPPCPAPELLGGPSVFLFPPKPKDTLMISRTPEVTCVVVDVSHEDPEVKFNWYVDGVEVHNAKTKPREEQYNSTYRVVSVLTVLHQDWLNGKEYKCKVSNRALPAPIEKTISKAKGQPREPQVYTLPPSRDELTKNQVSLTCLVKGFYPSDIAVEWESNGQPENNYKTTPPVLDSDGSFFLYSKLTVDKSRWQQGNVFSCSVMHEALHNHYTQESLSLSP
# light: B1 light
# notes: also called Ho Ab K326_12R
# B10: GpH7-B3 variant H268_12R/GpL16-k0 (antibody, human IgG1, kappa)
# heavy: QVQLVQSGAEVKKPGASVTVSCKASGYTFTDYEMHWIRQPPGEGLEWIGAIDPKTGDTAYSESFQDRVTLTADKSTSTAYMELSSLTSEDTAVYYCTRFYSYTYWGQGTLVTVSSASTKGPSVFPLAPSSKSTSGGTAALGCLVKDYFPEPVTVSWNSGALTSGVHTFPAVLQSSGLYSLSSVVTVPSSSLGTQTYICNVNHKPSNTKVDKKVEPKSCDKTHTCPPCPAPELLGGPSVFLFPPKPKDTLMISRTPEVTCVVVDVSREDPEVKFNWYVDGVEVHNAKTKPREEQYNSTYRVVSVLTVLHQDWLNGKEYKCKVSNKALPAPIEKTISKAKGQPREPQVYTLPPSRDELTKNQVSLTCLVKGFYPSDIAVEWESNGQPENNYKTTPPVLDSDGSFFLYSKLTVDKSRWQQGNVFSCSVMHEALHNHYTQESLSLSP
# light: B1 light
# notes: also called Ho Ab H268_12R
# B11: GpH7-B3 variant E333_04F/GpL16-k0 (antibody, human IgG1, kappa)
# heavy: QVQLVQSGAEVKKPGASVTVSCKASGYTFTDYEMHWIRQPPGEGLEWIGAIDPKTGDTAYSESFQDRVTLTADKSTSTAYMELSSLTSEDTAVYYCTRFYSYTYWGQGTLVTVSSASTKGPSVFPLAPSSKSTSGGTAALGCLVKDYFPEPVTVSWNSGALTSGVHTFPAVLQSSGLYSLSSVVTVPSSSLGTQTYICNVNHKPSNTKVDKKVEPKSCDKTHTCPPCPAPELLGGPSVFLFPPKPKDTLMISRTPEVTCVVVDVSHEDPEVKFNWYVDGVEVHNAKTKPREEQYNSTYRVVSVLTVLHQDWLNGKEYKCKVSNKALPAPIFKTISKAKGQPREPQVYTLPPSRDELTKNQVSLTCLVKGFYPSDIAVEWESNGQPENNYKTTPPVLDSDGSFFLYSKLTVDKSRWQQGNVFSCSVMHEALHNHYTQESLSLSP
# light: B1 light
# notes: also called Ho Ab E333_04F
# B12: GpH7-B3 variant E269_09D/GpL16-k0 (antibody, human IgG1, kappa)
# heavy: not shown
# light: B1 light
# notes: also called Ho Ab E269_09D
# B13: GpH7-B3 variant K334_12R/GpL16-k0 (antibody, human IgG1, kappa)
# heavy: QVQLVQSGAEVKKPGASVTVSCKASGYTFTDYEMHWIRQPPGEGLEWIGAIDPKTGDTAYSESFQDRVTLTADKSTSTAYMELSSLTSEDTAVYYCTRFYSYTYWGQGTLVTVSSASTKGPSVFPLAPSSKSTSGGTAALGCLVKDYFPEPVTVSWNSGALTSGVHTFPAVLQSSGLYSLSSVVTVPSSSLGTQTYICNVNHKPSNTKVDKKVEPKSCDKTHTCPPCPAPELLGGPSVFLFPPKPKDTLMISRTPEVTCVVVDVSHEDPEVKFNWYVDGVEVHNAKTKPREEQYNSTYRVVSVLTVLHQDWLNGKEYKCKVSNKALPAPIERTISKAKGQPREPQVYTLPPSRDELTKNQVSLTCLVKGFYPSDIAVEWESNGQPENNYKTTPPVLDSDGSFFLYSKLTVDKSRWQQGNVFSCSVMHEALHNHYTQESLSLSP
# light: B1 light
# notes: also called Ho Ab K334_12R
# B14: GpH7-B3 variant K326_03V/GpL16-k0 (antibody, human IgG1, kappa)
# heavy: not shown
# light: B1 light
# notes: also called Ho Ab K326_03V
# B15: GpH7-B3 variant G237_08L/GpL16-k0 (antibody, human IgG1, kappa)
# heavy: not shown
# light: B1 light
# notes: also called Ho Ab G237_08L
# B16: GpH7-B3 variant E333_08L/GpL16-k0 (antibody, human IgG1, kappa)
# heavy: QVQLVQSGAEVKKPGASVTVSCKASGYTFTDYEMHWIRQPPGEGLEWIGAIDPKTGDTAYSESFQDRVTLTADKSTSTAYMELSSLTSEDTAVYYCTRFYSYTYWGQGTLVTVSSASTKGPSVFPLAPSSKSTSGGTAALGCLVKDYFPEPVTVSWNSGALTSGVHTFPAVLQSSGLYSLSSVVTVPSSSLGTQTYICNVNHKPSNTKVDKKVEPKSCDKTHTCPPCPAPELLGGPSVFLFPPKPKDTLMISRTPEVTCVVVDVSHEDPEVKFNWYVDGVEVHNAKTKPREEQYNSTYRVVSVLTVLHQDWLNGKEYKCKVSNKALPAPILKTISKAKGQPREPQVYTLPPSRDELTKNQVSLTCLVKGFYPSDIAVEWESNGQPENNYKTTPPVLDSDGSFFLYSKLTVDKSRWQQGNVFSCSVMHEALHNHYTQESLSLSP
# light: B1 light
# notes: also called Ho Ab E333_08L
# B17: GpH7-B3 variant I332_06M/GpL16-k0 (antibody, human IgG1, kappa)
# heavy: not shown
# light: B1 light
# notes: also called Ho Ab I332_06M
# B18: GpH7-B3 variant K334_19Q/GpL16-k0 (antibody, human IgG1, kappa)
# heavy: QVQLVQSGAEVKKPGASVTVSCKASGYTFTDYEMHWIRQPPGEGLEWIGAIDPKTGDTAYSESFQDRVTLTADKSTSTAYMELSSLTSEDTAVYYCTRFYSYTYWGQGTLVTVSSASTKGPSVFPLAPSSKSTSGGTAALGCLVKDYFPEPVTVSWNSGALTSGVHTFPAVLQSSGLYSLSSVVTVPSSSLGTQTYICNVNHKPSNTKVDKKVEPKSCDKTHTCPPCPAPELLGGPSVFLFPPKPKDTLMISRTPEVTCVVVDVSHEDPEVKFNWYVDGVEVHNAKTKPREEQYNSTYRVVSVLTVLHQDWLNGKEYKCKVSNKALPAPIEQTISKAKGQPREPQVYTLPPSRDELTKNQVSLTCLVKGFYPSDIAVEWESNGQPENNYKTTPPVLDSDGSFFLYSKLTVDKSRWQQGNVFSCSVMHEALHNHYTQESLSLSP
# light: B1 light
# notes: also called Ho Ab K334_19Q
# B19: GpH7-B3 variant G237_20W/GpL16-k0 (antibody, human IgG1, kappa)
# heavy: not shown
# light: B1 light
# notes: also called Ho Ab G237_20W
# B20: GpH7-B3 variant G237_19Q/GpL16-k0 (antibody, human IgG1, kappa)
# heavy: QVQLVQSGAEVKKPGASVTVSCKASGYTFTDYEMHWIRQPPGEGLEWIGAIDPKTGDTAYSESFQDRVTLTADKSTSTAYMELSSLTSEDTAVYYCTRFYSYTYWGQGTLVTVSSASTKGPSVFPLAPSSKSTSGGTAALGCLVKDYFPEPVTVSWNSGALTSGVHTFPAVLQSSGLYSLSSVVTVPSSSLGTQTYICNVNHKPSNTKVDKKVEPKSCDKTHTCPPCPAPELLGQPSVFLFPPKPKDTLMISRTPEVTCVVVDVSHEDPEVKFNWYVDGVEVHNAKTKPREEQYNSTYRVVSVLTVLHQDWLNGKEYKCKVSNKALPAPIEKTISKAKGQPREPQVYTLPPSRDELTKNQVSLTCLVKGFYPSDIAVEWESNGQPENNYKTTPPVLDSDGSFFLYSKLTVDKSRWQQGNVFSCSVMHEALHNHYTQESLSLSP
# light: B1 light
# notes: also called Ho Ab G237_19Q
# B21: GpH7-B3 variant H268_05P/GpL16-k0 (antibody, human IgG1, kappa)
# heavy: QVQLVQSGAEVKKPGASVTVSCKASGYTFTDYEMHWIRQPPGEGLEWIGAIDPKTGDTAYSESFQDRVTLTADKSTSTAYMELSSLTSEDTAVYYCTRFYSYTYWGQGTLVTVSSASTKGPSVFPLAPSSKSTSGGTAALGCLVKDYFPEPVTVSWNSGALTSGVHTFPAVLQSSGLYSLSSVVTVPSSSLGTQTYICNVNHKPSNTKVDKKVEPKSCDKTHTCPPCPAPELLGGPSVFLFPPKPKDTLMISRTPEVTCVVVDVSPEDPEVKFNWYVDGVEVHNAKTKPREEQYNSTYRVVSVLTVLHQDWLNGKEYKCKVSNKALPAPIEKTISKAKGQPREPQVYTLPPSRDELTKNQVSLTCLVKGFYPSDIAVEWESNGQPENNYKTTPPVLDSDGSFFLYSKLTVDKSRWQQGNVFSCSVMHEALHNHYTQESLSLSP
# light: B1 light
# notes: also called Ho Ab H268_05P
# B22: GpH7-B3 variant H268_15Y/GpL16-k0 (antibody, human IgG1, kappa)
# heavy: not shown
# light: B1 light
# notes: also called Ho Ab H268_15Y
# B23: GpH7-B3 variant G236_14T/GpL16-k0 (antibody, human IgG1, kappa)
# heavy: not shown
# light: B1 light
# notes: also called Ho Ab G236_14T
# B24: GpH7-B3 variant A330_01G/GpL16-k0 (antibody, human IgG1, kappa)
# heavy: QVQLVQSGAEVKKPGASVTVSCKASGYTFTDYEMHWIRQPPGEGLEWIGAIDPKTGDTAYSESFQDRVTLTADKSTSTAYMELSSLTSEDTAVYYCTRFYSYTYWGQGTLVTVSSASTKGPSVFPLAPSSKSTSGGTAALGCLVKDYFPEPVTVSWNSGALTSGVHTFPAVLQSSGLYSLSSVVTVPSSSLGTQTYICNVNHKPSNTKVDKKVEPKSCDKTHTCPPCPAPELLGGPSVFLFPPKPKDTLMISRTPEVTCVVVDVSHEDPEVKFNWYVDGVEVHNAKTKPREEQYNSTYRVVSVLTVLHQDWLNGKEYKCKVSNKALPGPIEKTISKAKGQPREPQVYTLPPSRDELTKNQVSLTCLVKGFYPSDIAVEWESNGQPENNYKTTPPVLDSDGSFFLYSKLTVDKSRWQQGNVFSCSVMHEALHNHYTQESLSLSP
# light: B1 light
# notes: also called Ho Ab A330_01G
# B25: GpH7-B3 variant A330_05P/GpL16-k0 (antibody, human IgG1, kappa)
# heavy: not shown
# light: B1 light
# notes: also called Ho Ab A330_05P
# B26: GpH7-B3 variant G237_02A/GpL16-k0 (antibody, human IgG1, kappa)
# heavy: not shown
# light: B1 light
# notes: also called Ho Ab G237_02A
# B27: GpH7-B3 variant I336_18N/GpL16-k0 (antibody, human IgG1, kappa)
# heavy: not shown
# light: B1 light
# notes: also called Ho Ab I336_18N
# B28: GpH7-B3 variant K334_10E/GpL16-k0 (antibody, human IgG1, kappa)
# heavy: not shown
# light: B1 light
# notes: also called Ho Ab K334_10E
# Target: T1, FcγRIIa R
# Assay: SPR (Biacore), captured antibody, FcγR as analyte; relative binding activity
# Experimental: Analysis of interaction between objective antibody and the FcγR was carried out using Biacore T100 (GE Healthcare). HBS-EP+ (GE Healthcare) was used as the running buffer, and the measurement temperature was set to 25° C. Chips produced by immobilizing the antigen peptide by the amine coupling method to a Series S Sencor Chip CM5 (GE Healthcare), or alternatively, chips produced by allowing preliminarily biotinylated antigen peptides to interact with and immobilize onto a Series S Sensor Chip SA (certified) (GE Healthcare) were used. Antibodies of interest were captured onto an antigen peptide-immobilized chip, and allowed to interact to each FcγR diluted with running buffer. To regenerate and repeatedly use the chip, the antibodies captured on the chip were washed off by reacting 10 mM glycine-HCl, pH 1.5.
row,Ho/Con_2aR,Binder
1,26.7 % (GpH7-B3/GpL16-k0 = 100),B1
2,133 % (GpH7-B3/GpL16-k0 = 100),B2
3,99.6 % (GpH7-B3/GpL16-k0 = 100),B3
4,87.5 % (GpH7-B3/GpL16-k0 = 100),B4
5,100 % (GpH7-B3/GpL16-k0 = 100),B5
6,120 % (GpH7-B3/GpL16-k0 = 100),B6
7,22.5 % (GpH7-B3/GpL16-k0 = 100),B7
8,96.5 % (GpH7-B3/GpL16-k0 = 100),B8
9,95.7 % (GpH7-B3/GpL16-k0 = 100),B9
10,98.5 % (GpH7-B3/GpL16-k0 = 100),B10
11,92.4 % (GpH7-B3/GpL16-k0 = 100),B11
12,103 % (GpH7-B3/GpL16-k0 = 100),B12
13,110 % (GpH7-B3/GpL16-k0 = 100),B13
14,139 % (GpH7-B3/GpL16-k0 = 100),B14
15,56.6 % (GpH7-B3/GpL16-k0 = 100),B15
16,97.1 % (GpH7-B3/GpL16-k0 = 100),B16
17,105 % (GpH7-B3/GpL16-k0 = 100),B17
18,108 % (GpH7-B3/GpL16-k0 = 100),B18
19,107 % (GpH7-B3/GpL16-k0 = 100),B19
20,14.3 % (GpH7-B3/GpL16-k0 = 100),B20
21,95.9 % (GpH7-B3/GpL16-k0 = 100),B21
22,106 % (GpH7-B3/GpL16-k0 = 100),B22
23,80 % (GpH7-B3/GpL16-k0 = 100),B23
24,106 % (GpH7-B3/GpL16-k0 = 100),B24
25,36.2 % (GpH7-B3/GpL16-k0 = 100),B25
26,84 % (GpH7-B3/GpL16-k0 = 100),B26
27,94.5 % (GpH7-B3/GpL16-k0 = 100),B27
28,106 % (GpH7-B3/GpL16-k0 = 100),B28

# Source: patent publication US20150344570A1 (published 2015)
